The values that follow are results of earlier work, collected in patent US20100311759A1, “ANTIPARASITIC AGENT FOR FISH AND METHOD OF CONTROLLING PROLIFERATION OF FISH PARASITES” (NIPPON SUISAN KAISHA, LTD., priority 2007, published 2010).

For this data set, the system named is White spot disease. The conditions noted are these: 40 mg per 1 kg of fish body weight orally per day, 28-day experimental period.

B1: lactoferrin: marketed as an additive for fisheries; thought to increase non-specific biophylactic ability of host fish (protein, UniProt P24627 20-708, looked up)
Lactotransferrin: APRKNVRWCTISQPEWFKCRRWQWRMKKLGAPSITCVRRAFALECIRAIAEKKADAVTLDGGMVFEAGRDPYKLRPVAAEIYGTKESPQTHYYAVAVVKKGSNFQLDQLQGRKSCHTGLGRSAGWIIPMGILRPYLSWTESLEPLQGAVAKFFSASCVPCIDRQAYPNLCQLCKGEGENQCACSSREPYFGYSGAFKCLQDGAGDVAFVKETTVFENLPEKADRDQYELLCLNNSRAPVDAFKECHLAQVPSHAVVARSVDGKEDLIWKLLSKAQEKFGKNKSRSFQLFGSPPGQRDLLFKDSALGFLRIPSKVDSALYLGSRYLTTLKNLRETAEEVKARYTRVVWCAVGPEEQKKCQQWSQQSGQNVTCATASTTDDCIVLVLKGEADALNLDGGYIYTAGKCGLVPVLAENRKSSKHSSLDCVLRPTEGYLAVAVVKKANEGLTWNSLKDKKSCHTAVDRTAGWNIPMGLIVNQTGSCAFDEFFSQSCAPGADPKSRLCALCAGDDQGLDKCVPNSKEKYYGYTGAFRCLAEDVGDVAFVKNDTVWENTNGESTADWAKNLNREDFRLLCLDGTRKPVTEAQSCHLAVAPNHAVVSRSDRAAHVKQVLLHQQALFGKNGKNCPDKFCLFKSETKNLLFNDNTECLAKLGGRPTYEEYLGTEYVTAIANLKKCSTSPLLEACAFLTR
B1: the infection result is given as “no infection was observed”.
